In the supplement of paper PMC10567573:
± gives the standard deviation.

Test: protein stability index of a GFP-peptide fusion (GPS, HEK-293T) (PSI 1-6); higher = more stable
[1] = treatment: DMSO, c terminus: a fixed tail appended
[2] = treatment: MLN4924 1 uM, 8 h, c terminus: a fixed tail appended
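Also: 24-mer peptide tiles fused after GFP, lentivirally expressed, FACS-sorted into six equal bins by GFP/DsRed ratio, decoded by Illumina sequencing, PSI is the read-weighted mean bin number.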

Row | Sequence | protein stability index [1] | protein stability index [2] | protein stability index (treatment: DMSO, c terminus: native) | protein stability index (treatment: MLN4924 1 uM, 8 h, c terminus: native)
1 | RTSLQYGIMCLKRLNYDRKELEKR [PPFIA4] | 2.88 ± 0.45 | 2.83 ± 0.29 | – | –
2 | GLRAGFSSTSYRRTFGPPPSLSPG [PRPH] | 2.62 ± 0.24 | 2.93 ± 0.15 | – | –
3 | LKDNPLDPVLAKVAGDCLDEKQCK [LRRC59] | 5.13 ± 0.44 | 5.19 ± 0.27 | – | –
4 | GLFRKSGVKSRIQALRQMNEGAID [DLC1] | 3.36 ± 0.1 | 3.71 ± 0.12 | – | –
5 | VFQHHQYLSPLERKRLAREMQLSE [VENTX] | 2.81 ± 0.26 | 3.08 ± 0.37 | – | –
6 | PKDLDPSLCTHLIYAFAGMTNHQL [CHIT1] | 2.75 ± 0.44 | 2.46 ± 0.6 | – | –
7 | GASSREEPPEEPEQCPVIDSQAPA [SPDEF] | 5.69 ± 0.17 | 5.52 ± 0.078 | – | –
8 | SYRSFHSGGYGQDALGMDPMMEHE [CTNNB1] | 4.29 ± 0.2 | 4.21 ± 0.25 | – | –
9 | MTGAYNNFFRMFDRNTKRDVTLEA [PPP2R2C] | 3.03 ± 0.45 | 3.14 ± 0.33 | – | –
10 | DVTADSKVLEALKLKGAEVTYMNM [PLD5] | 3.57 ± 0.21 | 3.44 ± 0.29 | – | –
11 | ERLKVMCEEALCSNLSVENVADTL [SPOPL] | 3.84 ± 0.36 | 4.09 ± 0.39 | – | –
12 | ADKCVCGPSAPPAPTPPSLSQRVM [TIAF1] | 4.15 ± 0.24 | 4.42 ± 0.35 | – | –
13 | ITPTKKIELDRTIMPDGTIVTTVT [C2CD2L] | 2.67 ± 0.25 | 2.79 ± 0.22 | – | –
14 | MAPKTKKGCKVTLPEKPVKLASHT [FBF1] | 4.16 ± 0.15 | 4.21 ± 0.087 | – | –
15 | NIPERASGPEGNLNQIVTEPDANF [FAM104B] | 5.35 ± 0.15 | 5.23 ± 0.47 | – | –
16 | EDAHLTQYKKEPVTTRQVRTIVEE [KRT17] | 5.01 ± 0.37 | 5.01 ± 0.19 | – | –
17 | AAAYTFLQRNPKHELTAKYLNYYQ [P3H4] | 2.25 ± 0.23 | 2 ± 0.33 | – | –
18 | YAVENEHMNRLQSQRAMLLQGTES [VTI1B] | 3.94 ± 0.31 | 4.1 ± 0.2 | – | –
19 | LDNSRSILKRRYYRQHCTLELGSY [CTDNEP1] | 2.34 ± 0.45 | 2.42 ± 0.31 | – | –
20 | VNSQFTAAVFKETFKSLSHIDPDV [ALG2] | 2.86 ± 0.47 | 3.05 ± 0.33 | – | –
21 | SSSSSSSSSSSASSSASSSFSEEG [NFE2L1] | 5.43 ± 0.33 | 5.38 ± 0.23 | – | –
22 | IEKEEQEKKRKEEEERRRREEEER [ACBD3] | 5.48 ± 0.21 | 5.66 ± 0.097 | – | –
23 | SANFHSLDDIYYFGGQNAHNQIAI [FUT8] | 2.4 ± 0.72 | 2.3 ± 0.24 | – | –

Row | Sequence | protein stability index [1] | protein stability index [2] | protein stability index (treatment: DMSO, c terminus: native) | protein stability index (treatment: MLN4924 1 uM, 8 h, c terminus: native)
24 | PPWGLGPGAGDPAPGIGPPEPWPG [MYCL] | 3.63 ± 0.39 | 3.92 ± 0.058 | – | –
25 | DDGRLLEYDTVTREVKVLLDQLRF [APMAP] | 2.62 ± 0.2 | 3.05 ± 0.38 | – | –
26 | WKSHLRNVQRPLLQAPFLPPKPPP [RHOBTB2] | 3.03 ± 0.21 | 3.15 ± 0.32 | – | –
27 | AAGGDGELGSPLRRSISSSRSENV [PSD2] | 5.07 ± 0.11 | 5.1 ± 0.19 | – | –
28 | SLALGDLIYVVIDLPINVFKLLAG [EDNRA] | 2.59 ± 1 | 3.28 ± 0.54 | – | –
29 | HLSSPAKNFFKKAAAALFGGKKDK [PLK2] | 2.16 ± 0.49 | 2.53 ± 0.55 | – | –
30 | TSLFMTPLDVVKVRLQSQRPSMAS [SLC25A39] | 2.69 ± 0.34 | 3.02 ± 0.19 | – | –
31 | KLEKSIDSYYRLVIHRALDREQVS [PCDHGA10] | 2.55 ± 1 | 2.48 ± 0.84 | – | –
32 | SSEASQLEDAAGGDSASEEKSGSA [FBXO34] | 5.61 ± 0.17 | 5.55 ± 0.29 | – | –
33 | PQKRKPQEQLLECNKLCGRGQSRQ [SLC2A12] | 4.1 ± 0.37 | 4.4 ± 0.056 | – | –
34 | GSFTVRADHGEPIGRGTKVILHLK [HSP90AB1] | 2.1 ± 0.3 | 2.71 ± 0.3 | – | –
35 | SGRHILEDSCAELGESKEHMESRM [SDE2] | 4.64 ± 0.35 | 4.48 ± 0.23 | – | –
36 | PSALFSKIRRGQFCIPEHISPKAR [TRIB1] | 2.81 ± 0.37 | 3.06 ± 0.47 | – | –
37 | LGSWLVPFAYLTVLDLSKSLSAAL [POMT2] | 3.19 ± 0.56 | 3.34 ± 0.37 | – | –
38 | PEMRWNKGTILKASVDYIRKLQKE [TFE3] | 2.91 ± 0.24 | 2.95 ± 0.17 | – | –
39 | NELTLNEKNFFPEYNYDWWEKKPF [CHGB] | 2.73 ± 0.24 | 3 ± 0.35 | – | –
40 | SALPFITYLENKGHRYPCFFNTLH [POP5] | 2.34 ± 0.46 | 2.19 ± 0.42 | – | –
41 | VVDKDKRNQCRYCRLKKCFRAGMK [HNF4A] | 2.51 ± 0.065 | 2.75 ± 0.39 | – | –
42 | NYVAKNFAQALGCVLYACFILGRL [SOAT2] | 3.46 ± 0.38 | 2.85 ± 0.38 | – | –
43 | RGDPAHAGLAELGHRLAQKLQGLE [PBXIP1] | 3.04 ± 0.34 | 3.29 ± 0.32 | – | –
44 | YEIEIQAEDGGAYLATAKVLITVE [PCDHGA10] | 2.96 ± 0.39 | 2.89 ± 0.91 | – | –
45 | RQAIFPDTWTLTEEHGLQQERPRP [PXN] | 4.43 ± 0.25 | 4.25 ± 0.28 | – | –
46 | KDHSSSRPSSPRPQKASPNGSISS [BTBD10] | 5.1 ± 0.42 | 4.71 ± 0.97 | – | –

Row | Sequence | protein stability index [1] | protein stability index [2] | protein stability index (treatment: DMSO, c terminus: native) | protein stability index (treatment: MLN4924 1 uM, 8 h, c terminus: native)
47 | RNGGSLADAISENYRIMSYFKEAE [WEE1] | 3.08 ± 0.36 | 3.2 ± 0.28 | – | –
48 | MKLEKEEFVTLKAIALANSDSMHI [ESRRG] | 2.46 ± 0.22 | 2.48 ± 0.28 | – | –
49 | RISFCADDKTDKRIFTFICKDSES [GULP1] | 3.52 ± 0.47 | 3.47 ± 0.96 | – | –
50 | KRYESHPVCADLQAKILQCYRENT [CHCHD3] | 3.18 ± 0.23 | 3.55 ± 0.26 | – | –
51 | LLGLGVLLFSGGLSESETGPMEEV [PBXIP1] | 2.22 ± 0.062 | 2.32 ± 0.31 | – | –
52 | ATDNYDIGFGVYFEWTDSPNTAVS [ACBD3] | 2.21 ± 0.16 | 2.25 ± 0.48 | – | –
53 | SMVDLTSVTLEDVTPKKSPPPKTN [FAN1] | 5.06 ± 0.12 | 4.9 ± 0.27 | – | –
54 | HTRSLNSIIHQMEKFSSSLHELSS [FBF1] | 2.97 ± 0.21 | 3.06 ± 0.48 | – | –
55 | ALLQAMKDLDGMDADILGLKKSNS [FBF1] | 2.83 ± 0.78 | 2.82 ± 0.29 | – | –
56 | RQWTVSDWGPCSGSCGQGRTIRHV [ADAMTSL2] | 2.15 ± 0.23 | 2.826 ± 0.025 | – | –
57 | TMAAKKNRQSSDKQNGRVAKVKGH [C18orf25] | 4.53 ± 0.25 | 4.58 ± 0.29 | – | –
58 | IWLDNLHCTGNEATLAACTSNGWG [LOXL2] | 2.18 ± 0.31 | 2.27 ± 0.3 | – | –
59 | KALLYLPIAPEVEDPEENPYGPPP [RBBP5] | 3.94 ± 0.31 | 4.07 ± 0.42 | – | –
60 | SSALHLSKGMSIFLDILRRADKND [NECAB1] | 2.29 ± 0.13 | 2.6 ± 0.31 | – | –
61 | SPSCPEEALAATWEQPWASEVFGP [PXN] | 3.62 ± 0.24 | 3.63 ± 0.14 | – | –
62 | IAKAEETHSSLSQELQARLQTVTR [CCDC89] | 4.25 ± 0.088 | 4.13 ± 0.2 | – | –
63 | PSEWRPLSEGCRAELAETIVYARV [CCDC3] | 3.14 ± 0.32 | 2.51 ± 0.23 | – | –
64 | RFYLLLFSFLGLLALGVSLLCNAI [PTGFR] | 2.4 ± 0.26 | 2.57 ± 0.24 | – | –
65 | CSSPSVVASLPLDQSDEGSSSQKE [MAGEA10] | 5.36 ± 0.74 | 5.49 ± 0.1 | – | –
66 | DAASLRRQIIKLNRRLQLLEEENK [MFF] | 3.35 ± 0.19 | 3.68 ± 0.55 | – | –
67 | RLSGLSSVGHNWRKRMGTRRGRHE [C22orf15] | 4.08 ± 0.23 | 4.14 ± 0.19 | – | –
68 | KVMIFKSSYSLSDMVSNIELPTRI [MIA2] | 1.88 ± 0.56 | 2.17 ± 0.12 | – | –
69 | IVSTQITRPSGNNGNRRRRKLRKT [PHTF1] | 4.35 ± 0.35 | 4.46 ± 0.23 | – | –

Row | Sequence | protein stability index [1] | protein stability index [2] | protein stability index (treatment: DMSO, c terminus: native) | protein stability index (treatment: MLN4924 1 uM, 8 h, c terminus: native)
70 | CSPSQMDLLCAQLQLPQLSDLGLL [FANCE] | 2.15 ± 0.42 | 2.13 ± 0.44 | – | –
71 | EVKPVLEVLVGKTIEQSLLEVMEE [RSPH3] | 2.48 ± 0.39 | 2.64 ± 0.48 | – | –
72 | GLSVSSRFSSGGACGLGGGYGGGF [KRT16] | 2.2 ± 0.39 | 2.52 ± 0.38 | – | –
73 | IYAHRVILSACSPYFRAMFTGELA [KLHL20] | 3.16 ± 0.56 | 2.9 ± 0.65 | – | –
74 | NRRLQLLEEENKERAKREMVMYSI [MFF] | 3.96 ± 0.19 | 3.6 ± 0.13 | – | –
75 | RKKTLVPGPPGSSRPVKGQVVTVH [FKBP8] | 3.53 ± 0.31 | 3.46 ± 0.2 | – | –
76 | RKRKKATEAIDSLRKSKRLRNRK [FBXO28] | – | – | 4.97 ± 0.1 | 5.19 ± 0.12
77 | ASVATWAIFVHRVGQPSIGGKLSP [CTBP1-DT] | 2.65 ± 0.9 | 2.33 ± 0.33 | – | –
78 | PEPWPGGCTGDEAESRGHSKGWGR [MYCL] | 4.18 ± 0.12 | 4.46 ± 0.56 | – | –
79 | ALVCQVDNDHKEAVGKMGFVVTML [ZER1] | 2.29 ± 0.29 | 2.37 ± 0.5 | – | –
80 | YSVARQFNLTPPICEQAEYHMFQR [KCNAB2] | 2.64 ± 0.23 | 2.93 ± 0.29 | – | –
81 | VSVIQSIPIFNETGRFSFTLPYPV [HACD3] | 2.91 ± 0.72 | 2.68 ± 0.76 | – | –
82 | TRDYAPPSRGHAYRDYGHSRRDES [RBMY1A1] | 4.54 ± 0.4 | 4.61 ± 0.42 | – | –
83 | MDTSHQPLLPAPPKTPMDGADCGI [LYSMD4] | 5.04 ± 0.2 | 5.09 ± 0.33 | – | –
84 | VRNLQSEVEGVKNIMTQNVERILA [VAMP8] | 3.01 ± 0.41 | 2.96 ± 0.51 | – | –
85 | ANTMEHLSLLDNNIPGNSTLITAV [FBXO33] | 3.16 ± 0.17 | 3.25 ± 0.33 | – | –
86 | LNSVERYDPKTNQWSSDVAPTSTC [KLHL20] | 4.18 ± 0.097 | 4.24 ± 0.43 | – | –
87 | VTSFPDADAFHHQVHDDDLLSSSE [EMD] | 5.38 ± 0.33 | 5.33 ± 0.21 | – | –
88 | DRDMFFKICESLNVPVDDSLVKEL [EFHC1] | 3.22 ± 0.29 | 3.3 ± 0.18 | – | –
89 | QLQSLCRGLGLGGRRLKSPQAPDP [FANCE] | 3.02 ± 1 | 3.16 ± 0.74 | – | –
